Experiment [1] addresses T1, E3mUU(ΔUFIM) with UFBP1(R265A) (UniProt O94874 1-179; Q96HY6 204-314, R265A).
T1 construct: UFL1; limits as stated for the crystallised E3mUU(ΔUFIM) construct; UFBP1 204-C; limits as for m14; source: recombinant, purified (HisTrap, HiLoad 26/600 Superdex 75 pg)
Description: SEC; analytical SEC, Superdex 200 Increase 3.2/300, 25 mM HEPES pH 7.5, 200 mM NaCl, 0.5 mM TCEP; components mixed and kept on ice before loading; peak fractions on Coomassie gels. The settings on record: both partners purified. In general terms: Size exclusion chromatography separates by hydrodynamic size, large species first.

The target in a further experiment is T2, E3mUU(ΔUFIM) (UniProt O94874 1-179; Q96HY6 204-314).
T2 construct: UFL1; limits as stated for the crystallised E3mUU(ΔUFIM) construct; for the crystal 6×His-TEV-UFL1(1–179) was co-expressed with a UFC1-UFBP1 204-C fusion and the His tag was not cleaved; source: recombinant, purified (HisTrap, HiLoad 26/600 Superdex 75 pg)
Described as above. The settings on record: both partners purified.

B1: UFC1 (enzyme)
chain: MADEATRRVVSEIPVLKTNAGPRDRELWVQRLKEEYQSLIRYVENNKNADNDWFRLESNKEGTRWFGKCWYIHDLLKYEFDIEFDIPITYPTTAPEIAVPELDGKTAKMYRGGKICLTDHFKPLWARNVPKFGLAHLMALGLGPWLAVEIPDLIQKGVIQHKEKCNQ
notes: free UFC1 in SEC and ITC; also called E2
Take B1: the binding result in experiment [1] is given as “binds”.

B2: UFC1(D50A) (enzyme)
chain: MADEATRRVVSEIPVLKTNAGPRDRELWVQRLKEEYQSLIRYVENNKNAANDWFRLESNKEGTRWFGKCWYIHDLLKYEFDIEFDIPITYPTTAPEIAVPELDGKTAKMYRGGKICLTDHFKPLWARNVPKFGLAHLMALGLGPWLAVEIPDLIQKGVIQHKEKCNQ
Turning to B2, the binding result with E3mUU(ΔUFIM) was “binds”.

The record behind these values is PMC10937380 (Nature, 2024).
